Read-outs that look alike come from different tables or passages of the source.
What was measured:
[1] = assay type: in vivo; conditions: rabbit, 3 weekly doses
Procedure: Maytansinoid conjugates with different linker-maytansinoid formats were evaluated for induction of corneal ocular toxicity in a preclinical rabbit model. Hallmarks of corneal epithelial damage such as migration of pigmented basal epithelial cells distal from the limbus, corneal pannus, and epithelial erosion were assessed following 3 weekly doses.

[2] = SAR3419 Phase I clinical trials, pharmacokinetics and toxicity; assay type: in vivo, human
From the text: SAR3419 is a DM4-containing antibody drug conjugate that comprises the humanized antibody Hu-B4 (humanized mouse IgG1 MAb targeting CD19) and the SPDB linker. Phase I clinical trials were initiated in patients having relapsed or refractory CD19+B cell Non-Hodgkins Lymphoma.

[3] = IMGN242 pharmacokinetics and toxicity in human clinical trials; assay type: in vivo
[4] = IMGN242 preclinical pharmacokinetic studies, mice; assay type: in vivo
Procedure: (§1) IMGN242 is an antibody drug conjugate for the treatment of CanAg-expressing tumors. The compound is made by conjugating the potent cytotoxic maytansinoid, DM4, to the monoclonal antibody, huC242. Forty-five patients have been treated with IMGN242 at 8 different dose levels (18 to 297 mg/m2) in two clinical trials. […] The determined half-life in patients was similar to that predicted for IMGN242 from preclinical pharmacokinetic studies (t1/2 about 5 days in mice and 4 days in cynomolgus monkeys).

[5] = IMGN242 preclinical pharmacokinetic studies, cynomolgus monkeys; assay type: in vivo
Procedure: as §1

[6] = patients, 160 mg/m^2 and 208 mg/m^2
[7] = patients with low circulating CanAg (<1000 U/mL)

## SMCC-DM1
[1]; dose 8 mg/kg
  corneal ocular toxicity: −
[1]; dose 10 mg/kg
  corneal ocular toxicity: −
[1]; dose 12 mg/kg
  corneal ocular toxicity: −
[1]; dose 16 mg/kg
  corneal ocular toxicity: −

## SAR3419
[2]; [6]
  elimination: eliminated rapidly
  exposure versus dose: increased with dose
[2]; some patients, 160 mg/m^2 or 208 mg/m^2
  ocular toxicity: displayed ocular toxicity

B1: IMGN242 (conjugate, chains of the INN, looked up)
VH: QVQLVQSGAEVKKPGETVKISCKASDYTFTYYGMNWVKQAPGQGLKWMGWIDTTTGEPTYAQKFQGRIAFSLETSASTAYLQIKSLKSEDTATYFCARRGPYNWYFDVWGQGTTVTVSS
VL: DIVMTQSPLSVPVTPGEPVSISCRSSKSLLHSNGNTYLYWFLQRPGQSPQLLIYRMSNLVSGVPDRFSGSGSGTAFTLRISRVEAEDVGVYYCLQHLEYPFTFGPGTKLELK
modifications: maytansinoid DM1 payload (mertansine)
[3]; patients
  Cmax versus dose: increased proportionally with increasing dose
  effect of circulating CanAg levels on Cmax: not significantly affected
[3]; patients with high CanAg (>1000 U/mL) compared to low (<1000 U/mL)
  increase in clearance: 3 to 5 fold
[3]; [7]
  duration of initial rapid distribution phase: about 48 hours
  pharmacokinetic profile in plasma: two-phase pharmacokinetic profile
[3]; patients with low circulating CanAg, preliminary analysis
  elimination phase half-life: about 5 days
[3]; patients with low plasma CanAg (<1000 U/ml), dose 168 mg/m2
  incidence of possible study drug-related ocular toxicities: notable incidence
[3]; patients, 18 to 297 mg/m2
  dose limiting toxicities (DLTs): decreased visual acuity, corneal deposits and keratitis
[4]
  t1/2: about 5 days
[5]
  t1/2: ~96 h
